System: Escherichia coli TOP10
Assay: shrunken log2 fold change of peptide-encoding DNA abundance (4.5 h post-induction vs induction); higher = less antimicrobial activity (less host growth inhibition)
Details: time post-induction: 4.5 h; library: site-saturation at positions 5, 18, 19, 20
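Also: peptides expressed intracellularly from a pBAD plasmid library in pooled LB shake-flask culture, induced with 0.3% L-arabinose, DNA abundance read by NGS, three biological replicates, DESeq2 with apeglm shrinkage.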

Row | Sequence | shrunken log2 fold change
1 | RRIRKRPPRLPRPRPRPNLRPRP | 0.211
2 | RRIRKRPPRLPRPRPRPNLSPRP | -0.0224
3 | RRIRKRPPRLPRPRPRPNLYPRP | -0.111
4 | RRIRKRPPRLPRPRPRPNMVPRP | 0.114
5 | RRIRKRPPRLPRPRPRPNPQPRP | 0.463
6 | RRIRKRPPRLPRPRPRPNQVPRP | -0.0821
7 | RRIRKRPPRLPRPRPRPNRLPRP | 0.497
8 | RRIRKRPPRLPRPRPRPNRMPRP | 0.00972
9 | RRIRKRPPRLPRPRPRPNSGPRP | 0.0179
10 | RRIRKRPPRLPRPRPRPNTKPRP | -0.391
11 | RRIRKRPPRLPRPRPRPNTLPRP | -0.0816
12 | RRIRKRPPRLPRPRPRPNTMPRP | -0.209
13 | RRIRKRPPRLPRPRPRPNTQPRP | -0.0781
14 | RRIRKRPPRLPRPRPRPNYHPRP | -0.331
15 | RRIRKRPPRLPRPRPRPPAGPRP | 0.989
16 | RRIRKRPPRLPRPRPRPPCSPRP | 0.202
17 | RRIRKRPPRLPRPRPRPPDSPRP | 0.189
18 | RRIRKRPPRLPRPRPRPPECPRP | 0.0514
19 | RRIRKRPPRLPRPRPRPPEQPRP | 0.0815
20 | RRIRKRPPRLPRPRPRPPFIPRP | -0.00551
21 | RRIRKRPPRLPRPRPRPPHSPRP | 0.509
22 | RRIRKRPPRLPRPRPRPPHTPRP | 0.534
23 | RRIRKRPPRLPRPRPRPPHYPRP | 0.176
24 | RRIRKRPPRLPRPRPRPPLCPRP | 0.668
25 | RRIRKRPPRLPRPRPRPPMCPRP | 0.389

Row | Sequence | shrunken log2 fold change
26 | RRIRKRPPRLPRPRPRPPMPPRP | 0.525
27 | RRIRKRPPRLPRPRPRPPPIPRP | 0.748
28 | RRIRKRPPRLPRPRPRPPPKPRP | 1.2
29 | RRIRKRPPRLPRPRPRPPQNPRP | 0.723
30 | RRIRKRPPRLPRPRPRPPRIPRP | 0.323
31 | RRIRKRPPRLPRPRPRPPSCPRP | 1.71
32 | RRIRKRPPRLPRPRPRPPSLPRP | 0.46
33 | RRIRKRPPRLPRPRPRPPYCPRP | 0.0662
34 | RRIRKRPPRLPRPRPRPPYDPRP | -0.0658
35 | RRIRKRPPRLPRPRPRPPYIPRP | -0.69
36 | RRIRKRPPRLPRPRPRPPYKPRP | -0.142
37 | RRIRKRPPRLPRPRPRPPYWPRP | 0.429
38 | RRIRKRPPRLPRPRPRPQCVPRP | 0.117
39 | RRIRKRPPRLPRPRPRPQDKPRP | -0.182
40 | RRIRKRPPRLPRPRPRPQEEPRP | 0.0428
41 | RRIRKRPPRLPRPRPRPQFEPRP | 0.177
42 | RRIRKRPPRLPRPRPRPQFFPRP | -0.493
43 | RRIRKRPPRLPRPRPRPQGPPRP | 0.053
44 | RRIRKRPPRLPRPRPRPQHCPRP | -0.0588
45 | RRIRKRPPRLPRPRPRPQHNPRP | -0.145
46 | RRIRKRPPRLPRPRPRPQIFPRP | -0.0259
47 | RRIRKRPPRLPRPRPRPQIKPRP | 0.0963
48 | RRIRKRPPRLPRPRPRPQIRPRP | -0.0406
49 | RRIRKRPPRLPRPRPRPQKEPRP | -0.00503
50 | RRIRKRPPRLPRPRPRPQKKPRP | -0.111

Row | Sequence | shrunken log2 fold change
51 | RRIRKRPPRLPRPRPRPQLHPRP | 0.0197
52 | RRIRKRPPRLPRPRPRPQLMPRP | 1.59
53 | RRIRKRPPRLPRPRPRPQMCPRP | -0.0359
54 | RRIRKRPPRLPRPRPRPQMEPRP | -0.0377
55 | RRIRKRPPRLPRPRPRPQMSPRP | -0.164
56 | RRIRKRPPRLPRPRPRPQNAPRP | -0.0942
57 | RRIRKRPPRLPRPRPRPQNLPRP | 0.0263
58 | RRIRKRPPRLPRPRPRPQQDPRP | 0.179
59 | RRIRKRPPRLPRPRPRPQQFPRP | -0.0324
60 | RRIRKRPPRLPRPRPRPQQLPRP | 0.0814
61 | RRIRKRPPRLPRPRPRPQTHPRP | 0.372
62 | RRIRKRPPRLPRPRPRPQWVPRP | 0.0548
63 | RRIRKRPPRLPRPRPRPQWWPRP | 0.243
64 | RRIRKRPPRLPRPRPRPRCWPRP | 0.931
65 | RRIRKRPPRLPRPRPRPRDDPRP | 0.365
66 | RRIRKRPPRLPRPRPRPRDKPRP | 0.116
67 | RRIRKRPPRLPRPRPRPRDQPRP | 0.000671
68 | RRIRKRPPRLPRPRPRPREEPRP | 1.2
69 | RRIRKRPPRLPRPRPRPREQPRP | 0.609
70 | RRIRKRPPRLPRPRPRPREWPRP | 1.77
71 | RRIRKRPPRLPRPRPRPRFCPRP | 0.554
72 | RRIRKRPPRLPRPRPRPRFFPRP | 0.282
73 | RRIRKRPPRLPRPRPRPRFYPRP | 0.33
74 | RRIRKRPPRLPRPRPRPRGHPRP | 0.189
75 | RRIRKRPPRLPRPRPRPRHMPRP | -0.0275

Row | Sequence | shrunken log2 fold change
76 | RRIRKRPPRLPRPRPRPRIDPRP | -0.154
77 | RRIRKRPPRLPRPRPRPRKQPRP | 0.224
78 | RRIRKRPPRLPRPRPRPRMEPRP | 0.0104
79 | RRIRKRPPRLPRPRPRPRMFPRP | 0.112
80 | RRIRKRPPRLPRPRPRPRNRPRP | -0.139
81 | RRIRKRPPRLPRPRPRPRPDPRP | 0.446
82 | RRIRKRPPRLPRPRPRPRPEPRP | 0.162
83 | RRIRKRPPRLPRPRPRPRRQPRP | 0.333
84 | RRIRKRPPRLPRPRPRPRSGPRP | 0.183
85 | RRIRKRPPRLPRPRPRPRVAPRP | 1.11
86 | RRIRKRPPRLPRPRPRPRYTPRP | -0.113
87 | RRIRKRPPRLPRPRPRPSADPRP | 0.027
88 | RRIRKRPPRLPRPRPRPSCPPRP | -0.0238
89 | RRIRKRPPRLPRPRPRPSDPPRP | 0.0131
90 | RRIRKRPPRLPRPRPRPSDQPRP | 0.0938
91 | RRIRKRPPRLPRPRPRPSDYPRP | -0.08
92 | RRIRKRPPRLPRPRPRPSGFPRP | 0.161
93 | RRIRKRPPRLPRPRPRPSHGPRP | -0.216
94 | RRIRKRPPRLPRPRPRPSHSPRP | -0.47
95 | RRIRKRPPRLPRPRPRPSHVPRP | 0.164
96 | RRIRKRPPRLPRPRPRPSIIPRP | -0.221
97 | RRIRKRPPRLPRPRPRPSKKPRP | 0.0529
98 | RRIRKRPPRLPRPRPRPSKMPRP | 0.025
99 | RRIRKRPPRLPRPRPRPSKPPRP | 0.0859
100 | RRIRKRPPRLPRPRPRPSKQPRP | 0.292

Row | Sequence | shrunken log2 fold change
101 | RRIRKRPPRLPRPRPRPSLFPRP | 0.125
102 | RRIRKRPPRLPRPRPRPSLWPRP | 0.187
103 | RRIRKRPPRLPRPRPRPSMTPRP | -0.0765
104 | RRIRKRPPRLPRPRPRPSSCPRP | 0.31
105 | RRIRKRPPRLPRPRPRPSVKPRP | -0.358
106 | RRIRKRPPRLPRPRPRPSVVPRP | 0.45
107 | RRIRKRPPRLPRPRPRPSWKPRP | 0.0521
108 | RRIRKRPPRLPRPRPRPSYLPRP | -0.144
109 | RRIRKRPPRLPRPRPRPSYVPRP | -0.294
110 | RRIRKRPPRLPRPRPRPTAKPRP | 0.00802
111 | RRIRKRPPRLPRPRPRPTALPRP | 0.213
112 | RRIRKRPPRLPRPRPRPTARPRP | 0.508
113 | RRIRKRPPRLPRPRPRPTCMPRP | 0.576
114 | RRIRKRPPRLPRPRPRPTCNPRP | 0.198
115 | RRIRKRPPRLPRPRPRPTECPRP | 0.119
116 | RRIRKRPPRLPRPRPRPTELPRP | 0.876
117 | RRIRKRPPRLPRPRPRPTFEPRP | 0.312
118 | RRIRKRPPRLPRPRPRPTGAPRP | 1.09
119 | RRIRKRPPRLPRPRPRPTGPPRP | 0.588
120 | RRIRKRPPRLPRPRPRPTGYPRP | 0.214
121 | RRIRKRPPRLPRPRPRPTHEPRP | 0.267
122 | RRIRKRPPRLPRPRPRPTHLPRP | 0.149
123 | RRIRKRPPRLPRPRPRPTHTPRP | 0.285
124 | RRIRKRPPRLPRPRPRPTIEPRP | 0.236
125 | RRIRKRPPRLPRPRPRPTIQPRP | -0.0129

Row | Sequence | shrunken log2 fold change
126 | RRIRKRPPRLPRPRPRPTKHPRP | 0.195
127 | RRIRKRPPRLPRPRPRPTNQPRP | 0.289
128 | RRIRKRPPRLPRPRPRPTPDPRP | 0.559
129 | RRIRKRPPRLPRPRPRPTPGPRP | 0.683
130 | RRIRKRPPRLPRPRPRPTPLPRP | 0.848
131 | RRIRKRPPRLPRPRPRPTQIPRP | 0.412
132 | RRIRKRPPRLPRPRPRPTSFPRP | -0.044
133 | RRIRKRPPRLPRPRPRPTSNPRP | 0.161
134 | RRIRKRPPRLPRPRPRPTVHPRP | 0.467
135 | RRIRKRPPRLPRPRPRPTVTPRP | 0.229
136 | RRIRKRPPRLPRPRPRPTWHPRP | 0.371
137 | RRIRKRPPRLPRPRPRPTWVPRP | -0.105
138 | RRIRKRPPRLPRPRPRPTYGPRP | 0.043
139 | RRIRKRPPRLPRPRPRPTYNPRP | -0.0201
140 | RRIRKRPPRLPRPRPRPTYPPRP | -0.00526
141 | RRIRKRPPRLPRPRPRPVALPRP | -0.0167
142 | RRIRKRPPRLPRPRPRPVDCPRP | -0.248
143 | RRIRKRPPRLPRPRPRPVDIPRP | -0.0337
144 | RRIRKRPPRLPRPRPRPVDQPRP | 0.766
145 | RRIRKRPPRLPRPRPRPVFDPRP | 0.171
146 | RRIRKRPPRLPRPRPRPVFSPRP | 0.111
147 | RRIRKRPPRLPRPRPRPVHGPRP | 0.0412
148 | RRIRKRPPRLPRPRPRPVHPPRP | 0.189
149 | RRIRKRPPRLPRPRPRPVHTPRP | 0.00666
150 | RRIRKRPPRLPRPRPRPVIMPRP | 0.137
